Test results as given in doi:10.1101/2023.04.21.537812 (bioRxiv, 2023).

Target: the molecule itself
Assay: SEC

B1: uncleaved Ycf1p-3xFLAG (natural protein, S. cerevisiae, UniProt P39109 1-1515, looked up)
chain: MAGNLVSWACKLCRSPEGFGPISFYGDFTQCFIDGVILNLSAIFMITFGIRDLVNLCKKKHSGIKYRRNWIIVSRMALVLLEIAFVSLASLNISKEEAENFTIVSQYASTMLSLFVALALHWIEYDRSVVANTVLLFYWLFETFGNFAKLINILIRHTYEGIWYSGQTGFILTLFQVITCASILLLEALPKKPLMPHQHIHQTLTRRKPNPYDSANIFSRITFSWMSGLMKTGYEKYLVEADLYKLPRNFSSEELSQKLEKNWENELKQKSNPSLSWAICRTFGSKMLLAAFFKAIHDVLAFTQPQLLRILIKFVTDYNSERQDDHSSLQGFENNHPQKLPIVRGFLIAFAMFLVGFTQTSVLHQYFLNVFNTGMYIKSALTALIYQKSLVLSNEASGLSSTGDIVNLMSVDVQKLQDLTQWLNLIWSGPFQIIICLYSLYKLLGNSMWVGVIILVIMMPLNSFLMRIQKKLQKSQMKYKDERTRVISEILNNIKSLKLYAWEKPYREKLEEVRNNKELKNLTKLGCYMAVTSFQFNIVPFLVSCCTFAVFVYTEDRALTTDLVFPALTLFNLLSFPLMIIPMVLNSFIEASVSIGRLFTFFTNEELQPDSVQRLPKVKNIGDVAINIGDDATFLWQRKPEYKVALKNINFQAKKGNLTCIVGKVGSGKTALLSCMLGDLFRVKGFATVHGSVAYVSQVPWIMNGTVKENILFGHRYDAEFYEKTIKACALTIDLAILMDGDKTLVGEKGISLSGGQKARLSLARAVYARADTYLLDDPLAAVDEHVARHLIEHVLGPNGLLHTKTKVLATNKVSALSIADSIALLDNGEITQQGTYDEITKDADSPLWKLLNNYGKKNNGKSNEFGDSSESSVRESSIPVEGELEQLQKLNDLDFGNSDAISLRRASDATLGSIDFGDDENIAKREHREQGKVKWNIYLEYAKACNPKSVCVFILFIVISMFLSVMGNVWLKHWSEVNSRYGSNPNAARYLAIYFALGIGSALATLIQTIVLWVFCTIHASKYLHNLMTNSVLRAPMTFFETTPIGRILNRFSNDIYKVDALLGRTFSQFFVNAVKVTFTITVICATTWQFIFIIIPLSVFYIYYQQYYLRTSRELRRLDSITRSPIYSHFQETLGGLATVRGYSQQKRFSHINQCRIDNNMSAFYPSINANRWLAYRLELIGSIIILGAATLSVFRLKQGTLTAGMVGLSLSYALQITQTLNWIVRMTVEVETNIVSVERIKEYADLKSEAPLIVEGHRPPKEWPSQGDIKFNNYSTRYRPELDLVLKHINIHIKPNEKVGIVGRTGAGKSSLTLALFRMIEASEGNIVIDNIAINEIGLYDLRHKLSIIPQDSQVFEGTVRENIDPINQYTDEAIWRALELSHLKEHVLSMSNDGLDAQLTEGGGNLSVGQRQLLCLARAMLVPSKILVLDEATAAVDVETDKVVQETIRTAFKDRTILTIAHRLNTIMDSDRIIVLDNGKVAEFDSPGQLLSDNKSLFYSLCMEAGLVNEN
binding result: binds
